Experiment [1] concerns the target T1, human SEMA4D, full length, on CHO-K1 cells (CHO-K1 hSEMA4D) (human) (UniProt Q92854).
T1 sequence (looked up): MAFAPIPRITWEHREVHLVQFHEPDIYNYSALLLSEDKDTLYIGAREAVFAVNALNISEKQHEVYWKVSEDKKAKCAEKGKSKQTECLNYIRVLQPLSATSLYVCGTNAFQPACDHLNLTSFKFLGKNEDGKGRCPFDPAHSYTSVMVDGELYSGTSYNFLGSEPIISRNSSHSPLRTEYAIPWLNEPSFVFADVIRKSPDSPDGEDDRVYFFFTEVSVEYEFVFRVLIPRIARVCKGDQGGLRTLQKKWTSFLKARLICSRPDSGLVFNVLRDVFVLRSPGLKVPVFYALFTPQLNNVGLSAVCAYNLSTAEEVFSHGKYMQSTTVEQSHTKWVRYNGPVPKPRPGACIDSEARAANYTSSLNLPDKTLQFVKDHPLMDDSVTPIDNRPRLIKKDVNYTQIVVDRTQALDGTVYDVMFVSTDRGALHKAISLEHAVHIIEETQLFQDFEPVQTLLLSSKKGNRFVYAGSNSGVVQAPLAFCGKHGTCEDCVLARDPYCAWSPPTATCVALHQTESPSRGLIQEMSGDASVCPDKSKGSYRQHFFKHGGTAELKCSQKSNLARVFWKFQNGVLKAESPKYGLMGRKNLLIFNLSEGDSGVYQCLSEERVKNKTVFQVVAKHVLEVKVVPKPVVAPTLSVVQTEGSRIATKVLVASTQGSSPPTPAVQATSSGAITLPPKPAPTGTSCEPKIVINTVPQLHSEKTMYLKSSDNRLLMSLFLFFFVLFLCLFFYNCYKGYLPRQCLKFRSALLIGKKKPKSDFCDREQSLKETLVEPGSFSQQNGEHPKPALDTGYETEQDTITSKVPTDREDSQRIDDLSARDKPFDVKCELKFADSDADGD
The experiment is described as follows: FACS, CHO-K1 hSEMA4D cells; Ab 0.107 nM.

The target of experiment [2] is mouse SEMA4D, full length, on CHO-K1 cells (CHO-K1 mSEMA4D) (mouse) (UniProt O09126). In words: FACS, CHO-K1 mSEMA4D cells; Ab 0.00427 nM. (In flow cytometry, cells or beads pass a laser one at a time.)
The target in experiment [3] is T2, biotinylated hSEMA4D ECD-His (human) (UniProt Q92854).
T2 sequence (chain, biotinylated with Biotin-X-X-NHS at a molar ratio of 8,1; sites not stated): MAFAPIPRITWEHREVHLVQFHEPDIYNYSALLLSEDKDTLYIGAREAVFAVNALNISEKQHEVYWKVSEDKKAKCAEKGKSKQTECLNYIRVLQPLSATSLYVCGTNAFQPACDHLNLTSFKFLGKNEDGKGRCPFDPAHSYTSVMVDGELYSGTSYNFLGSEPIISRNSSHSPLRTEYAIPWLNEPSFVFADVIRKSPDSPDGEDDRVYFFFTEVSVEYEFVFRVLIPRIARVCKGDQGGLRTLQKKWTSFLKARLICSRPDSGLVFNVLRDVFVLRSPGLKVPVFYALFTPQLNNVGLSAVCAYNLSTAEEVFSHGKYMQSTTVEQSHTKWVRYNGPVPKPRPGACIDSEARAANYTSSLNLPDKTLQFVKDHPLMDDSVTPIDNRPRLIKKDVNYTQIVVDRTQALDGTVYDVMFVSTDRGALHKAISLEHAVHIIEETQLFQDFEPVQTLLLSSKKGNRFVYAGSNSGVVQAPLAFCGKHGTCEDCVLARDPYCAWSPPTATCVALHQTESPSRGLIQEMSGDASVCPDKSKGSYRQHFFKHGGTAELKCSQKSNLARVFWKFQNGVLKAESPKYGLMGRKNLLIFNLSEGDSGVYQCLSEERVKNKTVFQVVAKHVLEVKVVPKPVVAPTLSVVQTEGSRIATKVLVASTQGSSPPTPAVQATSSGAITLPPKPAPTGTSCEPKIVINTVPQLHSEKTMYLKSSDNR
The experiment is described as follows: FACS, blocking of biotinylated hSEMA4D ECD-His binding to 293F hPlexin B1 cells; Ab 0.0213 nM.

In experiment [4] the target is monkey SEMA4D, full length, on CHO-K1 cells (CHO-K1 cSEMA4D) (monkey). The experiment is described as follows: FACS, CHO-K1 cSEMA4D cells; Ab 0.0213 nM.
Experiment [5] has the same target. In words: FACS, CHO-K1 cSEMA4D cells; Ab 0.000853 nM.
In experiment [6] the target is T2, biotinylated hSEMA4D ECD-His (human). In words: FACS, blocking of biotinylated hSEMA4D ECD-His binding to 293F hPlexin B1 cells; Ab 0.534 nM.
For experiment [7], the target named is T1, human SEMA4D, full length, on CHO-K1 cells (CHO-K1 hSEMA4D) (human). In words: FACS, CHO-K1 hSEMA4D cells; Ab 2.67 nM.
Experiment [8] concerns the target mouse SEMA4D, full length, on CHO-K1 cells (CHO-K1 mSEMA4D) (mouse) (UniProt O09126). In words: FACS, CHO-K1 mSEMA4D cells; Ab 0.107 nM.
Experiment [9] has the same target. The experiment is described as follows: FACS, CHO-K1 mSEMA4D cells; Ab 0.534 nM.
The target in experiment [10] is T2, biotinylated hSEMA4D ECD-His (human). In words: FACS, blocking of biotinylated hSEMA4D ECD-His binding to 293F hPlexin B1 cells; Ab 66.7 nM.
Experiment [11] deals with monkey SEMA4D, full length, on CHO-K1 cells (CHO-K1 cSEMA4D) (monkey). In words: FACS, CHO-K1 cSEMA4D cells; Ab 2.67 nM.
For experiment [12], the target named is T1, human SEMA4D, full length, on CHO-K1 cells (CHO-K1 hSEMA4D) (human). In words: FACS, CHO-K1 hSEMA4D cells; Ab 0.0213 nM.
Experiment [13] has the same target. In words: FACS, CHO-K1 hSEMA4D cells; Ab 0.534 nM.
Experiment [14] has as its target monkey SEMA4D, full length, on CHO-K1 cells (CHO-K1 cSEMA4D) (monkey). The experiment is described as follows: FACS, CHO-K1 cSEMA4D cells; Ab 13.3 nM.
Experiment [15] deals with T2, biotinylated hSEMA4D ECD-His (human). The experiment is described as follows: FACS, blocking of biotinylated hSEMA4D ECD-His binding to 293F hPlexin B1 cells; Ab 0.00427 nM.

This is an account of results in patent publication US20220073608A1.

Turning to Human IgG control (antibody), the MFI in [1] was found to be 38; in [2], 23.7; in experiment [4], 31.6; in experiment [5], 31.6; in experiment [7], 35.9; in experiment [8] it was 24.1. The MFI in experiment [9] was 23.7; in experiment [11] it was 33.3; in experiment [12] it was 38.2; in experiment [13], 37.4; in experiment [14], 86.7. For the same substance, the MFI (residual ligand binding) in experiment [3] is 359; in experiment [6] it was 341; in experiment [10] it was 321; in [15] it was 378.

In the case of Mouse IgG control (antibody), the MFI in experiment [1] came to 36.1; in [2] it was 30.1; in experiment [4] it was 23.1; in experiment [5], 22.9; in [7] it was 35.6; in [8], 29.8. The MFI came to 29.5 in [9]; 37.8 in [11]; 35.8 in experiment [12]; 36.5 in [13]; 65.6 in [14]. Besides, the MFI (residual ligand binding) stood at 468 in experiment [3], 472 in experiment [6], 471 in [10] and 486 in [15].
